Laboratory results: patent US6753317 (US Dept. of Health and Human Services, dated 2004)
Starred links: 1 amine or outer side, 2 acyl side, 3 side chain; linkers in the order of their positions; H or OH if unused. Non-standard residues stand in square brackets, D forms with d. *: point of attachment. des‑NH2‑α‑pyrrolidine‑1‑yl = Dmt (2',6'-dimethyl-L-tyrosine) with the α-amine replaced by pyrrolidine-1-yl, Cc1cc(O)cc(C)c1C[C@@H](C(=O)*)N1CCCC1; des‑NH2‑α‑piperidine‑1‑yl = Dmt (2',6'-dimethyl-L-tyrosine) with the α-amine replaced by piperidine-1-yl, Cc1cc(O)cc(C)c1C[C@@H](C(=O)*)N1CCCCC1; βTic = 1,2,3,4-tetrahydroisoquinoline-3-yl acetic acid, O=C(C[C@@H]1Cc2ccccc2CN1[*:1])[*:2]; des‑NH2‑α‑pyrrole‑1‑yl = replacement of the α-amino group by a pyrrol-1-yl group; NH(1-Adamantyl) = C1C2CC3CC1CC(N*)(C2)C3; Dmt = Cc1cc(O)cc(C)c1C[C@H](N)C(=O)O; NH‑tetrazole‑5‑yl = n1nc(N*)n[nH]1; Tic = O=C(O)[C@@H]1Cc2ccccc2CN1; dTic = O=C(O)[C@H]1Cc2ccccc2CN1; NHtBu = CC(C)(C)N*

B1: dermorphin: H-Tyr-D-Ala-Phe-Gly-Tyr-Pro-Ser-NH2 (peptide)
peptide: H-Y[dA]FGYPS-NH2
B2: H-Dmt-Tic-NH-tetrazole-5-yl (peptide)
peptide: H-[Dmt]-[Tic]-{NH‑tetrazole‑5‑yl}
B3: [des-NH2-α-piperidine-1-yl]-Dmt-Tic-OH (peptide)
peptide: {des‑NH2‑α‑piperidine‑1‑yl}-[Dmt]-[Tic]-OH
B4: H-Dmt-Tic-Ala-NH-1-adamantane (peptide)
peptide: H-[Dmt]-[Tic]-Ala-{NH(1-Adamantyl)}
B5: N,N(Me)2-Dmt-D-Tic-NH-1-adamantane (peptide)
peptide: {N,N‑dimethyl}-[Dmt]-[dTic]-{NH(1-Adamantyl)}
B6: N,N(Me)2-Dmt-Tic-NH-tBu (peptide)
peptide: {N,N‑dimethyl}-[Dmt]-[Tic]-NHtBu
B7: H-Dmt-Tic-NH-tBu (peptide)
peptide: H-[Dmt]-[Tic]-NHtBu
SMILES: Cc1cc(O)cc(C)c1C[C@H](N)C(=O)N1Cc2ccccc2C[C@H]1C(=O)NC(C)(C)C
B8: H-Dmt-Tic-NH-1-adamantane (peptide)
peptide: H-[Dmt]-[Tic]-{NH(1-Adamantyl)}
SMILES: Cc1cc(O)cc(C)c1C[C@H](N)C(=O)N1Cc2ccccc2C[C@H]1C(=O)NC12CC3CC(CC(C3)C1)C2
B9: H-Dmt-βTic-OH (peptide)
peptide: H-[Dmt]-[βTic]-OH
B10: H-Dmt-Tic-Ala-NH2 (peptide)
peptide: H-[Dmt]-[Tic]-Ala-NH2
B11: [des-NH2-α-pyrrolidine-1-yl]-Dmt-Tic-OH (peptide)
peptide: {des‑NH2‑α‑pyrrolidine‑1‑yl}-[Dmt]-[Tic]-OH
B12: N,N(Me)2-Dmt-Tic-NHMe (peptide)
peptide: {N,N‑dimethyl}-[Dmt]-[Tic]-NHMe
B13: N,N(Me)2-Dmt-Tic-NH-1-adamantane (peptide)
peptide: {N,N‑dimethyl}-[Dmt]-[Tic]-{NH(1-Adamantyl)}
B14: [des-NH2-α-pyrrole-1-yl]-Dmt-Tic-OH (peptide)
peptide: {des‑NH2‑α‑pyrrole‑1‑yl}-[Dmt]-[Tic]-OH
B15: H-Dmt-Tic-Ala-NHMe (peptide)
peptide: H-[Dmt]-[Tic]-Ala-NHMe
SMILES: CNC(=O)[C@H](C)NC(=O)[C@@H]1Cc2ccccc2CN1C(=O)[C@@H](N)Cc1c(C)cc(O)cc1C
B16: H-Dmt-Tic-NHMe (peptide)
peptide: H-[Dmt]-[Tic]-NHMe
B17: H-(R,S)Dmt-Tic-OH (peptide)
peptide: H-[Dmt]-[Tic]-OH
modifications: also: (R,S)-Dmt, racemic, mixture of diastereomers
B18: H-Dmt-Tic-Ala-NH-tBu (peptide)
peptide: H-[Dmt]-[Tic]-Ala-NHtBu
SMILES: Cc1cc(O)cc(C)c1C[C@H](N)C(=O)N1Cc2ccccc2C[C@H]1C(=O)N[C@@H](C)C(=O)NC(C)(C)C
B19: H-Dmt-D-Tic-NH-1-adamantane (peptide)
peptide: H-[Dmt]-[dTic]-{NH(1-Adamantyl)}

target: T1, µ-opioid receptor of the guinea pig ileum (GPI) (guinea pig); assay: cell-based or functional assay

Binder	IC50 (µ agonist activity, GPI) [µM]
B1	0.00182

target: T1, µ-opioid receptor of the guinea pig …; assay: cell-based or functional assay; remark: another data set of the same source

Binder	GPI ED50 [µM]	GPI Ke [µM]	GPI pA2
B2	8.2		
B3	> 10		
B4	1		
B5	4.48		
B6	> 10	0.3	
B7	1.04		
B8	0.036		
B9	> 10		
B10	4.74		
B11	> 10		
B12	> 10	0.39	6.41
B13	0.016		
B14	> 10		
B15	0.29		
B16	> 10	1.15	5.94
B17	> 10		
B18	> 10	0.17	6.76
B19	1.68		
